Experiments:
Test in all cases: BLI; Octet RED; antibody (IgG, 10 µg/mL) immobilised on anti-human IgG Fc capture biosensors; antigen as analyte, six twofold dilutions from 2 µM (gp120 monomers) or 500 nM (BG505.SOSIP.664 trimer); 1X PBS, 0.1% BSA, 0.005% Tween-20, 0.02% sodium azide; 23°C; association 180 s, dissociation 180 s; double reference subtraction; global 1:1 fit
[1] = biological target: ∆CDR1VH heavy chain chimera paired with the mature light chain (human)
[2] = biological target: mature heavy chain paired with Int5∆FWR2-FWR3VL (human)
mature heavy chain paired with Int5∆FWR2-FWR3VL (human), sequence (heavy, as listed by the source): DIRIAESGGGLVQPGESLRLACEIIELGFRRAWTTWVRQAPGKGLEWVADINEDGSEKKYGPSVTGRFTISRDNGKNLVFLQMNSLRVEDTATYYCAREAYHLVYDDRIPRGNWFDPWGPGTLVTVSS

[3] = biological target: mature heavy chain paired with the inferred naive light chain (matVH 0VL) (human)
mature heavy chain paired with the inferred naive light chain (matVH 0VL) (human), sequence (heavy, as listed by the source): as above

∆CDR1VH heavy chain chimera paired with the mature light chain (human), sequence (light, as listed by the source): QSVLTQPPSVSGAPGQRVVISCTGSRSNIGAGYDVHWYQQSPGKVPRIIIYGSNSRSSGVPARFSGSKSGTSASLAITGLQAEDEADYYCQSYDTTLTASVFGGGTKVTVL

Substance: BG505.SOSIP.664 trimer (from UniProt Q2N0S6 1-860; Q2N0S6 1-860) (complex)
- Kd [1]: 40.6 nM
- Kd [2]: 1300 nM
- Kd [3]: 89.6 nM

— paper PMC8376252
